Biological target: T1, polypeptide 10 (human)
T1 construct: The empty single-chain polypeptide as secreted by WEHI-231 cells, about 50 kD; also called MHC-derived polypeptide; single continuous amino acid chain 12
Assay: inferred from peptide-dependent multimer staining of TCR-expressing Jurkat76 cells (flow cytometry)

T1 sequence (chain, as listed by the source limits assumed): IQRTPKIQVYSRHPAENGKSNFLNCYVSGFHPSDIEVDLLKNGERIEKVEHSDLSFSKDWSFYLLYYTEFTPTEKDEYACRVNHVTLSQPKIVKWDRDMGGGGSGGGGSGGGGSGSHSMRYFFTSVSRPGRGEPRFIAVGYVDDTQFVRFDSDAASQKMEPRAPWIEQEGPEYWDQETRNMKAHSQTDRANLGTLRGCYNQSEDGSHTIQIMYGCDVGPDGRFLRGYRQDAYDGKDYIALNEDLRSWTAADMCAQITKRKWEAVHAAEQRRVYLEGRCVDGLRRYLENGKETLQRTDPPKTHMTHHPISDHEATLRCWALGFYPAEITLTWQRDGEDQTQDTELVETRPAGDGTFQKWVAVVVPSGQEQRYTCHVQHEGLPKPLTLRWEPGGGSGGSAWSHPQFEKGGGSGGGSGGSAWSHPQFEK

B1: oligopeptide 26 (peptide)
peptide: LTDLGQNLLY
binding result: binds

From patent EP4484441A1 (Eberhard-Karls-Universität Tübingen, dated 2025)
